System: peptide library, one residue held at a place counted from the S/T acceptor
Experiment: relative phosphorylation of the sub-library (ratio to the mean residue at this position); human; higher = residue favoured
Outline: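 Purified recombinant kinases (human or orthologue constructs) were incubated in 384-well plates with biotinylated degenerate peptide sub-libraries, each fixing one residue at one position around a central Ser/Thr. Peptides were at 50 μM, with 50 μM ATP spiked with γ-32P-ATP, for 90 min under kinase-specific conditions. Spots on streptavidin membranes were phosphorimaged and quantified by densitometry. Relative sub-library phosphorylation is a ratio to the mean residue at that position.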

Chain of TSSK1B, construct: Full length (Q9BXA7 whole entry, looked up): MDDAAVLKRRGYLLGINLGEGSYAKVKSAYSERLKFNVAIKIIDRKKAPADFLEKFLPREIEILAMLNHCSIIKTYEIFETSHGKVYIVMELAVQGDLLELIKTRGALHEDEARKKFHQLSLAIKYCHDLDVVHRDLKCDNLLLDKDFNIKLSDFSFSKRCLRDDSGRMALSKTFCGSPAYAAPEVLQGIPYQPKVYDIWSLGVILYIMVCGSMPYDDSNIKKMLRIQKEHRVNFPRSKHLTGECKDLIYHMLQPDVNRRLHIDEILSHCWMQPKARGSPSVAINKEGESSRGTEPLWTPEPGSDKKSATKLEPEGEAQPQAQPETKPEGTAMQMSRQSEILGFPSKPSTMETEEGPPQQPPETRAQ

TSSK1B, construct: Full length (from UniProt Q9BXA7)
relative phosphorylation
Conditions	at +1	at +2	at +3	at +4	at -1	at -2	at -3	at -4	at -5
A fixed	0.896	1.04	0.82	0.786	1.15	1.84	0.918	1.21	1.05
D fixed	0.619	0.465	1.55	0.621	0.453	0.495	0.378	0.625	0.389
E fixed	0.69	0.497	0.747	0.452	0.506	0.474	0.532	0.883	0.371
F fixed	1.1	0.97	1.09	1.33	0.617	0.565	0.497	0.643	0.99
G fixed	0.884	1.4	0.809	0.639	1.08	1.2	1.08	1.29	0.635
H fixed	1.1	1.99	1.29	0.768	0.957	0.981	1.01	1.23	0.57
I fixed	0.854	1.56	0.66	2.06	0.502	0.661	0.421	0.677	1.61
K fixed	1.43	0.385	0.945	0.621	2.08	2.53	2.55	2.11	0.612
L fixed	1.03	1.53	0.758	2.43	0.683	0.423	0.418	0.73	2.77
M fixed	1.23	1.21	0.953	1.9	0.885	0.681	0.607	1.12	1.14
N fixed	1.05	0.881	1.92	0.793	0.98	1.22	0.887	0.889	0.477
P fixed	0.176	0.61	0.392	0.702	1.96	0.794	1.3	0.592	1.26
Q fixed	1.38	0.997	1.07	0.683	1.17	1.29	0.858	0.864	0.783
R fixed	1.54	0.586	0.953	0.529	1.98	1.72	3.76	1.81	1.09
V fixed	0.935	1.07	0.632	1.34	0.59	1.11	0.545	0.797	1.76
W fixed	0.893	0.845	1.56	0.719	0.601	0.401	0.465	0.73	0.734
Y fixed	1.19	0.96	0.851	0.62	0.817	0.623	0.772	0.805	0.767
pThr fixed	0.709	0.515	0.365	0.424	0.191	0.303	0.574	0.596	0.457
pTyr fixed	0.793	0.437	0.381	0.396	0.445	0.326	0.424	0.432	0.65
